# Experimental data from PMC10696041, “Identification of PCPE-2 as the endogenous specific inhibitor of human BMP-1/tolloid-like proteinases” (Nature Communications, 2023).
# T1: procollagen C-proteinase enhancer 1, native form with no His tag (human, UniProt Q15113 26-449)
# T1 construct: PCPE-1, native form with no His tag, used in the SPR analyses; The activity assays used another form, PCPE-1[Cter-8His]; also called PCPE-1
# T1 sequence (looked up): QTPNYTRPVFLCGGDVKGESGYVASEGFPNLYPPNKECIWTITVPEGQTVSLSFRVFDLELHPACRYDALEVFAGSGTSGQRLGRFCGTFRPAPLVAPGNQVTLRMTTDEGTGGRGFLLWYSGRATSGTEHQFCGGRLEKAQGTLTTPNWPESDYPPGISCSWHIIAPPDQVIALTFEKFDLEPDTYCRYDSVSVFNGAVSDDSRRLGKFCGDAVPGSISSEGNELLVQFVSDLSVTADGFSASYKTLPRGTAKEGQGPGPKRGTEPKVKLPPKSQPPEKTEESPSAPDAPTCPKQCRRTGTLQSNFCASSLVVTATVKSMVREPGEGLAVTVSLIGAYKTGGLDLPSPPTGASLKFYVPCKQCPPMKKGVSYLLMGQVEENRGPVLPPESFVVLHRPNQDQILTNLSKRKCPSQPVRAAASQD
# T2: bone morphogenetic protein-1 (human, UniProt P13497-2 121-730)
# T2 construct: human BMP-1, the BMP-1 (BMP-1-1) splice variant of the BMP1 gene with CUB1-CUB2-EGF-CUB3 auxiliary domains; called full-length BMP-1 against the deletion mutants; also called BMP-1; BMP-1-1; source: Supplementary Methods
# T2 sequence (looked up): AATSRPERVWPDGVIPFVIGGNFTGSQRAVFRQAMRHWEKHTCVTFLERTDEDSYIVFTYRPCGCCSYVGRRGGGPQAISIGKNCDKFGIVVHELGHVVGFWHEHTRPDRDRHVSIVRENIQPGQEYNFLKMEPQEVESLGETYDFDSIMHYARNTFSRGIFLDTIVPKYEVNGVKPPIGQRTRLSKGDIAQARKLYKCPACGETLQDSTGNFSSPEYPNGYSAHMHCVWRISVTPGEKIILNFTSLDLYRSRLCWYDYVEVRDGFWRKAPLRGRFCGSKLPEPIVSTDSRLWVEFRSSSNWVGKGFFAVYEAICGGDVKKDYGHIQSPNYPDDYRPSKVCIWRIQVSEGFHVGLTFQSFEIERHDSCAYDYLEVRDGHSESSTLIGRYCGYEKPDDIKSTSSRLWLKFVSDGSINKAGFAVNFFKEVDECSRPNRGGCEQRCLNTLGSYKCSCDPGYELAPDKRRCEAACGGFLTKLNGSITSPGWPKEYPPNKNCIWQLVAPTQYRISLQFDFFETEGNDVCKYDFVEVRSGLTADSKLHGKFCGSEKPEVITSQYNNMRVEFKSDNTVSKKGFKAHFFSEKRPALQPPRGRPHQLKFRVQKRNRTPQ
# B1: procollagen C-proteinase enhancer-2 with N-terminal 6His-tag (natural protein, human, UniProt Q9UKZ9 24-415, looked up)
# chain: QSPERPVFTCGGILTGESGFIGSEGFPGVYPPNSKCTWKITVPEGKVVVLNFRFIDLESDNLCRYDFVDVYNGHANGQRIGRFCGTFRPGALVSSGNKMMVQMISDANTAGNGFMAMFSAAEPNERGDQYCGGLLDRPSGSFKTPNWPDRDYPAGVTCVWHIVAPKNQLIELKFEKFDVERDNYCRYDYVAVFNGGEVNDARRIGKYCGDSPPAPIVSERNELLIQFLSDLSLTADGFIGHYIFRPKKLPTTTEQPVTTTFPVTTGLKPTVALCQQKCRRTGTLEGNYCSSDFVLAGTVITTITRDGSLHATVSIINIYKEGNLAIQQAGKNMSARLTVVCKQCPLLRRGLNYIIMGQVGEDGRGKIMPNSFIMMFKTKNQKLLDALKNKQC
# notes: human PCPE-2, called full-length; two mutations of the bought clone (829 G>T, 874 C>A) were corrected; The most widely used PCPE-2 construct of the study; also called PCPE-2; PCPE-2[Nter-6His]; not shown: His6, N-terminal, kept
# B2: CUB1CUB2 domains of PCPE-2 generated from PCPE-2 3C (domain or fragment, human, UniProt Q9UKZ9 24-270, looked up)
# chain: QSPERPVFTCGGILTGESGFIGSEGFPGVYPPNSKCTWKITVPEGKVVVLNFRFIDLESDNLCRYDFVDVYNGHANGQRIGRFCGTFRPGALVSSGNKMMVQMISDANTAGNGFMAMFSAAEPNERGDQYCGGLLDRPSGSFKTPNWPDRDYPAGVTCVWHIVAPKNQLIELKFEKFDVERDNYCRYDYVAVFNGGEVNDARRIGKYCGDSPPAPIVSERNELLIQFLSDLSLTADGFIGHYIFRPK
# notes: human PCPE-2 from its beginning to amino-acid 270; an HRV 3C-protease site was inserted between amino-acids 270 and 271 of full-length human PCPE-2; Residues of the two 3C sites are probably left on both ends after cleavage; also called the CUB domains of PCPE-2; not shown: His6, N-terminal, cleaved
# Key:
# Settings in all cases: both partners purified
# [1] = target: T1, procollagen C-proteinase enhancer 1, …; assay: SPR; mini-procollagen III immobilised by amine coupling on CM5 (435, 437 or 651 RU); analytes in 10 mM HEPES pH 7.4, 0.15 M NaCl, 5 mM CaCl2, 0.05% P20, 25 °C; steady-state fit for constants, 50 nM single injections for the CUB1CUB2* mutants
# [2] = target: B2; assay: as above
# [3] = target: B1; assay: as above
# [4] = target: T2, bone morphogenetic protein-1; assay: SPR; BMP-1 immobilised by amine coupling on CM5 (974, 1302 or 1492 RU); 10 mM HEPES pH 7.4, 0.15 M NaCl, 5 mM CaCl2, 0.05% P20, 25 °C; PCPE-2 1.56-100 nM with steady-state fit (heterogeneous ligand model for kinetics), 50 nM for comparisons
# [5] = target: T2, bone morphogenetic protein-1; assay: enzyme inhibition assay (fluorogenic peptide cleavage); apparent; 7 nM BMP-1, 20 µM Mca-YVADAPK(Dnp)-OH, PCPE-2 0.07-690 nM, 50 mM HEPES pH 7.4, 5 mM CaCl2, 0.02% βOG, 37 °C; Morrison equation for tight-binding inhibitors with a constant for partial inhibition
binder,measurement,setting,value
"mini-procollagen III (domain or fragment, Homotrimer. The paper does not print the limits. The start assumes the last 33 Gly-X-Y triplets (helix end at 1196), recalled from earlier descriptions of this construct, followed by the intact …) not shown",Kd,[1],2.2 nM
same,Kd,[2],~30 nM
same,Kd,[3],11 nM
B1,Kd,[4],8.4 nM
same,Ki,[5],2.8 nM
B2,binding result,[4],binds
